Where a chain is given by its changes, count along the chain named.

As a reminder, the Kd is the equilibrium constant for the complex coming apart. A higher Kd goes with lower affinity. The koff is the first-order rate constant of dissociation. A high value points to a short-lived complex. By kon is commonly meant a measure of how fast the partners come together. A higher kon goes with fast association.

T1: pCD163-SRCR1-9-huFc (porcine, UniProt Q2VL90 47-1028, limits assumed)
T1 construct: also called pCD163:SRCR1-9-Fc; pCD163SRCR1-9-Fc; not shown: human Fc (huFc)
T1 sequence: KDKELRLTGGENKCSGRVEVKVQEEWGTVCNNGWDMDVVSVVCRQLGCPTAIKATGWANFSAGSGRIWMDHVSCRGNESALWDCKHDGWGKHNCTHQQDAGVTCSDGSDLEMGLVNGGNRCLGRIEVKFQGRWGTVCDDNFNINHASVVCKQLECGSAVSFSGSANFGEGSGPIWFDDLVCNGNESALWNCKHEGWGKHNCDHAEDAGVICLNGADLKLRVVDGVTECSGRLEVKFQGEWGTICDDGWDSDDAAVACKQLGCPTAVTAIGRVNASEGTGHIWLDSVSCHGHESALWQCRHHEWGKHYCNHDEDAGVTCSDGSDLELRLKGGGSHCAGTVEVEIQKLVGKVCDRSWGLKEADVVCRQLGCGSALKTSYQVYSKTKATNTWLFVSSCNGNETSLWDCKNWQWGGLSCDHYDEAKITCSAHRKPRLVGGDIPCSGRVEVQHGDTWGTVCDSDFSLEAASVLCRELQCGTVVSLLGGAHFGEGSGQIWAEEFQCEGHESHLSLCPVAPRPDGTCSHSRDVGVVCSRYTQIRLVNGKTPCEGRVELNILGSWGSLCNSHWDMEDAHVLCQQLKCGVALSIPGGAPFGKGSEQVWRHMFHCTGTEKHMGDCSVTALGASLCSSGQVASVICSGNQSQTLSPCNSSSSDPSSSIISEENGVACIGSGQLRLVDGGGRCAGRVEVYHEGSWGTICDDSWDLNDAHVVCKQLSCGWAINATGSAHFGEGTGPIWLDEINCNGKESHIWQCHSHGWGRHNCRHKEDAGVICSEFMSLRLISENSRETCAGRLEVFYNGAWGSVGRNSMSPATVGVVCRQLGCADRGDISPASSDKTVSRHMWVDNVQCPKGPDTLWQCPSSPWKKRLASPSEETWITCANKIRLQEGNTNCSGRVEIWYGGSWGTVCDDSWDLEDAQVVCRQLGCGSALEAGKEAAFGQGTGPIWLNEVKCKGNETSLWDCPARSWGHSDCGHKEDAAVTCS

B1: VHH 011 (2B06) (VHH)
VHH: EVQLVESGGGLVQAGGSLRLSCAASGRTLSVYGTGWFRQAPGKEREFVAGISGTTGSTLYADSVKGRFTISRDNAKNTVYLQMNSLKSEDTALYYCAAGGRVYITTSSWAYWGQGTQVTVSS
notes: Llama single domain antibody; also called 57(#11); VHCDR3 57(#11); not shown: tags: c-myc tag in periplasmic extract (ELISA, FACS); FLAG and His tags in purified VHH (SPR, infection assays)
B2: VHH 018 (3E01) (VHH)
VHH: QVQLQESGGGLVQVGGSLRLSCVASGRAPSRYVMGWFRQAPGQEREFVAGIAWSGRAPYADSVKGRSTISRDNAKNTVYLQMNSLKPEDTGVYYCAGGEGAIRWTTLDAYDYWGQGTQVTVSS
notes: Llama single domain antibody; also called 49(#18); VHCDR3 49(#18); not shown: tags: c-myc tag in periplasmic extract (ELISA, FACS); FLAG and His tags in purified VHH (SPR, infection assays)
B3: VHH 020 (3H11) (VHH)
VHH: B2 VHH with A28T, S67F, T68V, N73S, P87S, R103L, L107P, D108G, D111N
notes: Llama single domain antibody; also called 48(#20); VHCDR3 48(#20); not shown: tags: c-myc tag in periplasmic extract (ELISA, FACS); FLAG and His tags in purified VHH (SPR, infection assays)
B4: VHH 019 (3E11) (VHH)
VHH: B2 VHH with G16S, A24T, A28T, G50A, A52S, S67F, R103K
notes: Llama single domain antibody; also called 47(#19); VHCDR3 47(#19); not shown: tags: c-myc tag in periplasmic extract (ELISA, FACS); FLAG and His tags in purified VHH (SPR, infection assays)
B5: VHH 012 (2C07) (VHH)
VHH: QLQLVESGGGLVQAGGSLRLSCVASGRTFSRYAMGWFRQAPGKEREFVAAIAWSTGSTYYANSVKGRFAISGDNAKNTVYLQMNSLKPEDTAVYYCAAETRYCSGFGCLDPRTYGSWGQGTQVTVSS
notes: Llama single domain antibody; also called 41(#12); VHCDR3 41(#12); not shown: tags: c-myc tag in periplasmic extract (ELISA, FACS); FLAG and His tags in purified VHH (SPR, infection assays)
B6: VHH 001 (1B02) (VHH)
VHH: EVQLVESGGGLVQAGGSLSLSCAASGGTLAMYAMSWFRQAPGKDRKFVAAINTSGRYSRYADSVKGRFTISRDNAKNTATLQMNSLEPEDTAVYYCAATDKGNWALAMSYDYWGQGTQVTVSS
notes: Llama single domain antibody; also called 144(#1); VHCDR3 144(#1); not shown: tags: c-myc tag in periplasmic extract (ELISA, FACS); FLAG and His tags in purified VHH (SPR, infection assays)
B7: VHH 017 (3D03) (VHH)
VHH: QLQLVESGGGLVQPGGSLRLSCAASGFTLDDYTIGWFRQAPGKEREGVSCINSITSNTYYADSVKGRFTISRDNAKNTVYLQMNSLTAEDTAIYYCAADSGLFSGSSCLKYRAMRFGSWGQGTQVTVSS
notes: Llama single domain antibody; also called 29(#17); VHCDR3 29(#17); not shown: tags: c-myc tag in periplasmic extract (ELISA, FACS); FLAG and His tags in purified VHH (SPR, infection assays)
B8: VHH 015 (2G01) (VHH)
VHH: QVQLVESGGGLVQAGDTLRLSCTASGRTFSSYSMGWFRQAPGKEREFVAAITWNGYITNYADSVKGRFTISRDNTKNTVFLQMNSLKPEETAVYYCAATTFSTTSPISRTYNYWGPGTQVTVSS
notes: Llama single domain antibody; also called 150(#15); VHCDR3 150(#15); not shown: tags: c-myc tag in periplasmic extract (ELISA, FACS); FLAG and His tags in purified VHH (SPR, infection assays)
B9: VHH 002 (1B04) (VHH)
VHH: QVQLVESGGGLVQAGGSLRLSCAASGLTFVTYSMGWFRQAPGKEREFVAAHRWSGSAYYAEHADSVEGRFTISRDYAKNMLYLQMNSLKHEDTAVYYCAAGVGSAAQYRYWGRGTQVTVSS
notes: Llama single domain antibody; also called 76(#2); VHCDR3 76(#2); not shown: tags: c-myc tag in periplasmic extract (ELISA, FACS); FLAG and His tags in purified VHH (SPR, infection assays)
B10: VHH 016 (2H11) (VHH)
VHH: EVQLVESGGGLVQAGGSLRLSCAASGRTFAPGSMGWFRQAPGKEREFVAAHRWSGSAYYADYADSVEGRFTISRDYAKNMVYLQMNSLKPGDTAVYYCAAGVGSAAQYTYWGRGTQVTVSS
notes: Llama single domain antibody; also called 77(#16); VHCDR3 77(#16); not shown: tags: c-myc tag in periplasmic extract (ELISA, FACS); FLAG and His tags in purified VHH (SPR, infection assays)
B11: VHH 023 (4E10) (VHH)
VHH: QVQLVESGGGLVQAGGSLRLSCVASSRTSSTYAMGWFRQGPGKERDFVAIISFGGTFYADSVKGRFTISRDNAKNTVYLQMNSLKPEDTAVYYCAAGRTLSKRADSYASWGQGTQVTVSS
notes: Llama single domain antibody; also called 70(#23); VHCDR3 70(#23); not shown: tags: c-myc tag in periplasmic extract (ELISA, FACS); FLAG and His tags in purified VHH (SPR, infection assays)
B12: VHH 008 (1H01) (VHH)
VHH: B9 VHH with L27R, V30G, A105E
notes: Llama single domain antibody; also called 78(#8); VHCDR3 78(#8); not shown: tags: c-myc tag in periplasmic extract (ELISA, FACS); FLAG and His tags in purified VHH (SPR, infection assays)

The target of one test is T1, pCD163-SRCR1-9-huFc. Nature of the test: SPR (Biacore 3000), antigen amine-coupled on CM5, VHH injected, pH 7.4. As for the experimental part:
(§1) To assess the affinity of selected purified clones to pCD163, pCD163-SRCR1-9-huFc or pCD163-SRCR4-7-huFc proteins were coated by amine coupling on a CM5 sensor ship (GE Healthcare). Surface plasmon resonance (SPR) (Biacore 3000, GE Healthcare) was used to determine the binding kinetics of selected single domain antibodies at pH7.4. Approximately 2000 RU of pCD163-SRCR1-9-huFc or pCD163-SRCR4-7-huFc, proteins at 20 or 30 µg/ml in Acetate buffer pH 5.0 or pH 5.5 were immobilized onto a CM5 chip using the standard amine coupling procedure.
(§2) 1x HBS-EP pH 7.4, were utilized as a running buffer during binding kinetic measurements. Purified VHH were injected at 3-fold dilution (300 nM; 100 nM; 33 nM; 11 nM; 3.7 nM; 1.2 nM; 0.4 nM; 0 nM), for 120 s, at a flow rate of 30 µl/min. RU levels were restored to base levels after regeneration with 10 µl of 10 mM NaOH / 1 M NaCl and 10 µl of 10 mM Glycine pH 1.5 between samples. Fitting 1:1 binding with mass transfer was applied to the set sample curves using the simultaneous fitting option of the BIAevaluation software to calculate the kinetic constants of the antibody-antigen interactions including association rate (ka), dissociation rate (kd) and affinity (KD). Curves were removed from the fitting after visual examination of the residuals and considering the value of Chi2: a minimum of 4 curves were considered for the simultaneous fitting.
In general terms: In SPR one partner is held on a chip, and binding of the other changes the refractive index at the surface.
Turning to B1, the Kd amounted to 0.0714 µM, the off-rate constant (koff) came to 0.01 s⁻¹ and the on-rate constant (kon) is 140000 M⁻¹ s⁻¹.

B2 yielded a Kd of 0.0165 µM, a dissociation rate constant (koff) of 0.0134 s⁻¹ and a kon of 814000 M⁻¹ s⁻¹.

B3 displayed a Kd of 0.00915 µM, a koff of 0.00865 s⁻¹ and a kon of 945000 M⁻¹ s⁻¹.

Molecule B4 registered a Kd of 0.00877 µM, a koff of 0.0102 s⁻¹ and a kon of 1.16e+06 M⁻¹ s⁻¹.

B5 had a Kd of 0.00103 µM, a koff of 0.00617 s⁻¹ and a kon of 5.97e+06 M⁻¹ s⁻¹.

For the molecule B6, binding was put at a Kd of 0.00708 µM, the koff stood at 0.0178 s⁻¹ and the kon was 2.52e+06 M⁻¹ s⁻¹.

B7 showed a Kd of 0.0752 µM, a koff of 0.083 s⁻¹ and a kon of 1.1e+06 M⁻¹ s⁻¹.

On to B8, for which binding was put at a Kd of 0.0147 µM, the koff was 0.00583 s⁻¹ and the kon stood at 396000 M⁻¹ s⁻¹.

Regarding B9, the Kd was 0.02 µM, the koff was found to be 0.0108 s⁻¹ and the kon is 539000 M⁻¹ s⁻¹.

Take B10: the affinity, expressed as Kd, was 0.0443 µM; the koff was found to be 0.00972 s⁻¹; the kon is 219000 M⁻¹ s⁻¹.

For B11, binding was characterised by a dissociation constant (Kd) of 0.0031 µM, the koff came to 0.00927 s⁻¹ and the kon is 2.99e+06 M⁻¹ s⁻¹.

The next test deals with T1, pCD163-SRCR1-9-huFc. Nature of the test: ELISA, periplasmic extract on coated antigen. Background: ELISA stands for enzyme-linked immunosorbent assay.
In the case of B1, the “O.D. 450” value is 0.106 O.D. 450.

Consider B2, for which the “O.D. 450” value is 1.03 O.D. 450.

Regarding B3, the “O.D. 450” value stood at 2.93 O.D. 450.

Consider B4, for which the “O.D. 450” value worked out at 2.48 O.D. 450.

As to B5, the “O.D. 450” value was 0.535 O.D. 450.

Turning to B6, the “O.D. 450” value amounted to 0.109 O.D. 450.

For B7, the “O.D. 450” value worked out at 0.137 O.D. 450.

On to B8, for which the “O.D. 450” value came out at 1.18 O.D. 450.

On to B9, for which the “O.D. 450” value is 0.235 O.D. 450.

B10: the “O.D. 450” value was 0.263 O.D. 450.

B12: the “O.D. 450” value stood at 0.22 O.D. 450.

As to B11, the “O.D. 450” value is 0.577 O.D. 450.

The next test has as its target T1, pCD163-SRCR1-9-huFc. The test is described as follows: SPR; upper end of the range, tied by Table 7 to VHH 017 on pCD163:SRCR1-9-Fc (75.20). As for the experimental part: as §1, §2
B7: the Kd was 0.001 to 0.075 µM.

A further test has as its target T1, pCD163-SRCR1-9-huFc. The test is described as follows: SPR; lower end of the range, tied by Table 7 to VHH 012 on pCD163:SRCR1-9-Fc (1.03). As to the method:
as §1, §2
Molecule B5 returned a Kd of 0.001 to 0.075 µM.

Values taken from US20230203185A1 (ECO ANIMAL HEALTH, published 2023).
